Laboratory results from patent US20230148181A1, “ENZYME FOR THE CONVERSION OF CHLOROGENIC ACID INTO ISOCHLOROGENIC ACID” (UNIVERSITE DE LORRAINE, priority 2020, published 2023).

Columns and labels:
Format in all cases: biochemical
[1] = bioconversion of pure CGA into 3,5-DCQ by P. pastoris culture or supernatant expressing IbGDSL
Description: The bioconversion of CGA into 3,5-DCQ in vivo requires the establishment of a highly metabolically active P. pastoris culture. The yeasts are cultured in nutrient medium containing a 100 mM potassium phosphate buffer with a pH adjusted to pH 6.0. This allows the medium in which the enzyme obtained from the microbial cells and the substrate will be in contact, to be maintained at pH 6. After establishing an inoculum of 25 mL of yeast culture overnight at 30° C. under agitation of 250-300 rpm, this is used to inoculate a volume of 100-200 mL of nutrient medium in such a way as to obtain an OD600nm around 1. To this culture 0.5% methanol is added in order to initiate the production of IbGDSL. The addition of methanol is repeated every 24 hours to maintain the level of induction of protein production. […]
The first step of this experiment is to show whether the IbGDSL produced by P. pastoris is capable of converting CGA into 3,5-DCQ knowing that the original enzyme could potentially be glycosylated three-fold and that the glycan trees generated by P. pastoris are not comprised and organised in the same way as the plant glycan trees. These differences could directly influence the stability and prevent the proper activity of the enzyme. To do so, supernatants from two P. pastoris cultures, one transformed with the empty vector (negative control) and the other with the vector carrying the gene encoding IbGDSL were recovered after 3 days of methanol induction. These supernatants were incubated at pH 6.5 with 10 mM chlorogenic acid for 30 minutes at 36° C. The enzymatic reaction was then stopped with the addition of ethanol and analysed by UPLC-MS.
The second step of this experiment is to show whether the CGA directly added to the P. pastoris culture medium expressing the enzyme could be directly converted into 3,5-DCQ. The objective is to avoid the purification step of the enzyme if necessary.
[…] This experiment was conducted at 30° C., the ideal temperature for the culture and growth of the P. pastoris organism.

[2] = in vitro enzyme assay of purified recombinant IbGDSL (produced in N. benthamiana): conversion of CGA into 3,5-DCQ, UPLC-MS
Description: The in vitro enzyme assays are conducted on the purified recombinant enzyme produced in a plant system. After 6 days of co-culture, N. benthamiana leaves agro-infiltrated with the vector carrying the gene of interest, are harvested and ground in extraction buffer (20 mM sodium phosphate, 0.5 M NaCl, pH 7.4). The extract is then centrifuged and the supernatant containing all the soluble proteins including IbGDSL is recovered and sterilised by 0.2 μm filtration. Protein purification is then conducted according to the supplier's instructions on Nickel columns (HisTrap HP-GE HEALTHCARE). […]
Enzyme assays are performed in a 50 μl volume with 200-400 ng of the purified protein (that is a few μl). The optimal reaction pH will be determined using a polybuffer (0.1 M Tris/20 mM MES/0.1 M acetic acid) from which a pH range of 4 to 9 will be constructed. […]
3,5-DCQ quantification is done by measuring the area of the peak of a 3,5-DCQ standard at 330 nm. […] The contents of the other compounds (chlorogenic acid and the other DCQ isomers) are expressed as 3,5-DCQ equivalents. The content is calculated according to the following formula for a compound: […]
A pH range between 4 and 9 was established to determine the optimal pH for the conversion of CGA into 3,5-DCQ by virtue of IbGDSL. […] From the curve obtained it was determined that the optimal reaction pH is between 6 and 7 (FIG. 3A). […]

[3] = bioconversion of chlorogenic acid from green coffee (Coffea canephora) extract into 3,5-DCQ by IbGDSL from P. pastoris
Description: The bioconversion reaction of CGA into 3,5-DCQ was also carried out from a green coffee (Coffea canephora) extract whose composition is indicated in FIG. 7A. This green coffee extract, comprising a CGA concentration equivalent to 10 mM and bioconverted over a period of 50 hours, at 30° C. and pH 6, led to a new extract whose composition is shown in FIG. 7B. […] Furthermore, no other caffeic acid-containing substrate than chlorogenic acid is biotransformed as no decrease in peaks is observed except for that corresponding to CGA. Bioconversion of green coffee extract with IbGDSL increases the 3,5-DCQ content initially present in the extract 4.5-fold (200 mg/L at T0 and 900 mg at T50h) for a starting CGA concentration equivalent to 10 mM. Bioconversion of CGA into 3,5-DCQ from the green coffee extract was performed after 4 and 7 days, in order to analyse the effect of a reaction with GDSL taking place over a long period of time (FIG. 9). […] The concentration of the IbGDSL enzyme obtained by fermentation of P. pastoris accelerates the reaction speed of the conversion of CGA into 3,5-DCQ (FIG. 10). It is noticed that the same level of 3,5-DCQ concentration can be obtained for enzyme concentration factors of 10-, 20- and 37-fold after 60 h of bioconversion.

B1: IbGDSL: recombinant GDSL esterase/lipase enzyme of Ipomoea batatas (SEQ ID No. 1) converting chlorogenic acid into isochlorogenic acid (protein)
chain: MAAAAPSSSLLGVLMLLASIGYAAACYSAVFGFGDSLTDAGNLIRLEPDGTVPHMYFPPYGETYFDKPTGRCSDGRLIVDLIAQHYGLPLPPPSIPASLEGDKNRLRAGVNFAVVGSRALDAQFYEQRDIFDTVTNVSMTDQLNWFKELLPSLCSSPHDCKELLDGSLFVLGEFGGNDYTHSLLSGKGINVIRPFIPIVTRAIAQAVHELVELGARTVMIPSVLPLGCAASYLTYYPSPNPDDYDELGCLIWVNEMASYHNQLLQQQLAHVRELHPYANIVFADIYNAAMEVYQGPDTYGFSGGALRACCGGGGPYNFNTSAQCGNEGATACDNPSSYVNWDGYHLTEAAYQCITTGLLEGPYTYPRMKNLCRFDSRKTSRVAQI
modifications: Ipomoea batatas
[1]; 10 mM CGA added directly to culture, pH 6, 30° C., 3 days, stoichiometric limit 50%
  bioconversion yield of CGA into 3,5-DCQ: around 44%
[1]; after 50 hours of bioconversion, 5- and 7.5-mM starting CGA
  maximum yield of conversion of pure CGA into 3,5-DCQ: 32%
[1]; after 50 hours of bioconversion, starting pure CGA 7.5 and 9 mM
  3,5-DCQ content, maximum amounts: ~1.2 g/L
[1]; supernatant after 3 days methanol induction, pH 6.5, 10 mM chlorogenic acid, 30 minutes at 36° C.
  activity of enzyme secreted in P. pastoris supernatant (3,5-DCQ peak): functional
[2]; pH 6.5, 30 minutes of incubation at 36° C.
  CGA concentration from which a slowing down of the enzyme activity is observed: ≥ 10 mM
[2]; purified IbGDSL, 10 mM CGA, pH 6.5, temperature range 15-45° C.
  temperature of maximum conversion: 37 °C
[3]; green coffee extract equivalent to 10 mM CGA, 50 hours, 30° C., pH 6
  product specificity of the bioconversion: exclusively catalyses the formation of 3,5-DCQ
[3]; starting CGA equivalent to 10 mM, 30° C., pH 6
  3,5-DCQ content at T50h: 900 mg
[3]; starting CGA equivalent to 10 mM, T50h versus T0
  increase of the 3,5-DCQ content initially present in the extract: 4.5 fold
